Results on 4 molecules are retold here after article PMC11201802 (Protein Science : A Publication of the Protein Society, 2024).

Among the targets are Fab^S1CE1-EPR-1; Fab^S1CE3-EPR-1; Fab^S1CE4-EPR-1.
Holding throughout (assay): crystal structure
The target of test [1] is extracellular domain (ECD) of the human erythropoietin receptor (EPOR) with a C-terminal hexahistidine tag (human, UniProt P19235).
Sequence of extracellular domain (ECD) of the human erythropoietin receptor (EPOR) with a C-terminal hexahistidine tag (P19235 25-250): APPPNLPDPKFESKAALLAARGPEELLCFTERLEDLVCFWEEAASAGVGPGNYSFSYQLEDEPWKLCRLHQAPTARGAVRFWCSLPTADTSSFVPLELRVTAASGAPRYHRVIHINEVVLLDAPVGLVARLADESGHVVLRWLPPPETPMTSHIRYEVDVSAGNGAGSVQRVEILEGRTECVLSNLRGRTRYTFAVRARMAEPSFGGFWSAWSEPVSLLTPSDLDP

B1: Fab^S1CE1-EPR-1 (Fab, V domains shown)
VH: EVQLVESGGGLVQPGGSLRLSCAASGFNLRSYYMHWVRQAPGKGLEWVASISPYYSYTYYADSVKGRFTISADTSKNTAYLQMNSLRAEDTAVYYCARHGYGAMDYWGQGTLVTVFN
VL: DIQMTQSPSSLSASVGDRVTITCRASQSVSSAVAWYQQKPGKAPKLLIYSASSLYSGVPSRFSGSRSGTDFTLTISSLQPEDFATYYCQQSSYSLITFGQGTKVEIK
For B1, the stoichiometry N (usually the number of molecules, sites or subunits per partner or assembly) with Fab^S1CE1-EPR-1 was found to be 2.

B2: Fab^S1CE3-EPR-1 (Fab, V domains shown)
VH: EVQLVESGGGLVQPGGSLRLSCAASGFNLRSYYMHWVRQAPGKGLEWVASISPYYSYTYYADSVKGRFTISADTSKNTAYLQMNSLRAEDTAVYYCARHGYGAMDYWGQGTLVTVFN
VL: DIQMTQSPSSLSASVGDRVTITCRASQSVSSAVAWYQQKPGKAPKLLIYSASSLYSGVPSRFSGSRSGTDFTLTISSLQPEDFATYYCQQSSYSLITFGQGTKVEIK
Consider B2, for which the stoichiometry N in the test with Fab^S1CE3-EPR-1 amounted to 2.

B3: Fab^S1CE4-EPR-1 (Fab, V domains shown)
VH: EVQLVESGGGLVQPGGSLRLSCAASGFNLRSYYMHWVRQAPGKGLEWVASISPYYSYTYYADSVKGRFTISADTSKNTAYLQMNSLRAEDTAVYYCARHGYGAMDYWGQGTLVTVFN
VL: DIQMTQSPSSLSASVGDRVTITCRASQSVSSAVAWYQQKPGKAPKLLIYSASSLYSGVPSRFSGSRSGTDFTLTISSLQPEDFATYYCQQSSYSLITFGQGTKVEIK
B3: the stoichiometry N with Fab^S1CE4-EPR-1 is 2.

B4: Fab^S1CE-EPR-1 (Fab, V domains shown)
VH: EVQLVESGGGLVQPGGSLRLSCAASGFNLRSYYMHWVRQAPGKGLEWVASISPYYSYTYYADSVKGRFTISADTSKNTAYLQMNSLRAEDTAVYYCARHGYGAMDYWGQGTLVTVFN
VL: DIQMTQSPSSLSASVGDRVTITCRASQSVSSAVAWYQQKPGKAPKLLIYSASSLYSGVPSRFSGSRSGTDFTLTISSLQPEDFATYYCQQSSYSLITFGQGTKVEIK
For the molecule B4, the binding result in test [1] is “binds”.
